Measured values published in US5580854A, “Substrate-related peptidyl-aldehyde inhibitors of the proteolytic activity of the multicatalytic proteinase complex” (Mount Sinai School of Medicine of The City University of …, priority 1994, dated 1996).

Assays:
Assay in all cases: Kinetic parameters for degradation of synthetic substrates by the BrAAP component
Type in all cases: biochemical, bovine
[1] = substrate: CC(C)C[C@H](NC(=O)OCc1ccccc1)C(=O)NCC(=O)N[C@@H](C)C(=O)N[C@@H](CC(C)C)C(=O)N[C@@H](C)C(=O)Nc1ccc(C(=O)O)cc1; conditions: other: [S] 1.6-8.0; mean of 2 determinations; from plots of 1/v vs 1/s
From the text: (§1) A coupled two step reaction in the presence of excess aminopeptidase N (AN) was used for the determination of the BrAAP and SNAAP activities as described previously (Orlowski et al., Biochemistry 32:1563-1572 (1993)). Aminopeptidase N was purified from hog kidneys as described by Pfleiderer, Meth. Enzymol. 19:514-521 (1970) and freed from the contaminating metalloendopeptidase (EC 3.4.24.11) as previously described (Almenoff & Orlowski, Biochemistry 22:590-599 (1983)).
(§2) The flexibility of the amino acid residue in the P4 position of the inhibitors of the present invention is based on results of substrate specificity studies of the BrAAP component. Activities towards various analogs of the prototypic BrAAP substrate Cbz-Gly-Pro-Ala-Leu-Gly-pAB were determined using the coupled two-step reaction carried out in the presence of AN, as described in Example 4. The BrAAP substrates tested included the following:
(§3) Data represent mean values for 2 separate determinations. For substrates
(§4) with MichaelisMenten kinetics, Km and kcat were determined from
(§5) the regression line fitted to plots of 1/v vs 1/s. Kcat was estimate
(§6) assuming a molecular mabs of 700 KDa and assuming one active site per
(§7) molecule. […] The apparent Km for
(§8) this substrate is taken as the substrate concentration at half of the
(§9) Vmax observed. kcat for this substrate was calculated assuming
(§10) Vmax of 300 U/mg and assuming one active site per molecule of MPC.

[2] = substrate: CC(C)C[C@H](NC(=O)[C@H](C)NC(=O)CNC(=O)[C@@H]1CCCN1C(=O)OCc1ccccc1)C(=O)N[C@@H](C)C(=O)Nc1ccc(C(=O)O)cc1; conditions: other: [S] 1.6-8.0; mean of 2 determinations; from plots of 1/v vs 1/s
From the text: as §1, §2, §3, §4, §5, §6, §7, §8, §9, §10

[3] = substrate: CC(C)C[C@H](NC(=O)[C@H](C)NC(=O)CNC(=O)CNC(=O)OCc1ccccc1)C(=O)N[C@@H](C)C(=O)Nc1ccc(C(=O)O)cc1; conditions: other: [S] 0.8-4.8; sigmoidal kinetics; substrate concentration at half of the Vmax observed
From the text: as §1, §2, §3, §4, §5, §6, §7, §8, §9, §10

B1: BRAAP component of the MPC (Bos taurus) (protein)
chain 1: TTTLAFKFRHGVIVAADSRATAGAYIASQTVKKVIEINPYLLGTMAGGAADCSFWERLLARQCRIYELRNKERISVAAASKLLANMVYQYKGMGLSMGTMICGWDKRGPGLYYVDSEGNRISGATFSVGSGSVYAYGVMDRGYSYDLEVEEAYDLARRAIYQATYRDAYSGGSVSLYHVREDGWIRVSSDNVADLHDKYSGSTH
chain 2: TTIMAVQFDGGVVLGADSRTTTGSYIANRVTDKLTPIHDRIFCCRSGSAADTQAVADAVTYQLGFHSIELNEPPLVHTAASLFKEMCYRYREDLMAGIIIAGWDPQEGGQVYSVPMGGMMVRQPFAIGGSGSSYIYGYVDATYREGMTKEECLQFTANALALAMERDGSSGGVIRLAAIAEPGVERQVLLGDQIPKFTIATLPPL
chain 3: TTIAGVVYKDGIVLGADTRATEGMVVADKNCSKIHFISPNIYCCGAGTAADTDMTTQLISSNLELHSLSTGRLPRVVTANRMLKQMLFRYQGYIGAALVLGGVDVTGPHLYSIYPHGSTDKLPYVTMGSGSLAAMAVFEDKFRPDMEEEEAKKLVSEAIAAGIFNDLGSGSNIDLCVISKSKLDFLRPYSVPNKKGTRFGRYRCEKGTNAVLTEKVTTLEIEVLEETVQTMDTS
notes: The MPC was isolated from frozen bovine pituitaries; tissue PelFreeze, Inc. (Rogers, Ark.) (supplier of the tissue; the enzyme was purified in house); host or cells: bovine pituitaries
Km [1]: 30 mM | kcat [1]: 24 s⁻¹ | kcat/Km [1]: 820 M⁻¹ s⁻¹ | Km [2]: 8.7 mM | kcat [2]: 8.4 s⁻¹ | kcat/Km [2]: 960 M⁻¹ s⁻¹ | Km [3]: 2.5 mM | kcat [3]: 58 s⁻¹ | kcat/Km [3]: 23,300 s^-1 M^-1
